From patent publication US20250163162A1 come the findings set out here.

In this test the target is T1, IL10Rα and IL2Rγ on human primary cells (CD8 T cells, CD4 T cells, monocytes) (human) (UniProt Q13651).
T1 sequence (looked up) 1: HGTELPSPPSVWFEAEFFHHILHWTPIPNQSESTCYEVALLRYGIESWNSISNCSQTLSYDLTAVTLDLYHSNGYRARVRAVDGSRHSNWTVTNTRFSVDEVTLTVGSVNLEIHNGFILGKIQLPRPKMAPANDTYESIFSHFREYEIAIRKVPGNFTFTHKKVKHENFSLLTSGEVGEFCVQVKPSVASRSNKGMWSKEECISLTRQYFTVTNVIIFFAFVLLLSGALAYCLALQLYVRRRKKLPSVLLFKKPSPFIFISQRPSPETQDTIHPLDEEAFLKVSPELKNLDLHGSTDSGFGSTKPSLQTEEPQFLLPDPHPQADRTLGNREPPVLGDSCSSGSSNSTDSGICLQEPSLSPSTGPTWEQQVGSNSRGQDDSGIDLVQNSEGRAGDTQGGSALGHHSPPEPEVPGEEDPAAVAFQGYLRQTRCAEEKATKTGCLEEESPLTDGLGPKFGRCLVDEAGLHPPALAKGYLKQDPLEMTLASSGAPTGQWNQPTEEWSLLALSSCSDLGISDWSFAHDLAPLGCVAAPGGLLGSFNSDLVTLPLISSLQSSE
T1 sequence (looked up) 2: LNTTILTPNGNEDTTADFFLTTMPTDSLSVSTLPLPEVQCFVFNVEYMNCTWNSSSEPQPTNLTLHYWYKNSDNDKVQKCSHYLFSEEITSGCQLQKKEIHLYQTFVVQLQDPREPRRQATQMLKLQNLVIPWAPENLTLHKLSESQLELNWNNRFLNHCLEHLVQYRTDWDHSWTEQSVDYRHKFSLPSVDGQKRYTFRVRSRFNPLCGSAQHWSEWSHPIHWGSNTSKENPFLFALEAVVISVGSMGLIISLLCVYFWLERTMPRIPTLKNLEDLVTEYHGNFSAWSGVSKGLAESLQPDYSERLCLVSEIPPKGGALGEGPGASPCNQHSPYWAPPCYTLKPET
As to the kind of experiment: cell-based or functional assay.

B1: hIL10Ra_VHH14-hIL2Rg_VHH19, linker GGGSGGGS, tag his (bispecific antibody, not shown: small tags and cut ends)
chain: QVQLQESGGGSVQAGGSLRLSCGASGYTYSSYCMGWFRQVPGKEREGVAVIDSDGSTSYADSVKGRFTISKDNGKNTLYLQMNSLKPEDTAMYYCAADLGHYRPPCGVLYLGMDYWGKGTQVTVSSGGGSGGGSQVQLQESGGGSVQAGGSLRLSCTASGFTFDDREMNWYRQAPGNECELVSTISSDGSTYYADSVKGRFTISQDNAKNTVYLQMDSVKPEDTAVYYCAADFMIAIQAPGAGCWGQGTQVTVSS
B1 registered a pSTAT3 (MFI) in CD4 T cells at 0.0001 µM of 10700 MFI, a pSTAT3 (MFI) in CD4 T cells at 0.0013 µM of 12000 MFI, a pSTAT3 (MFI) in CD4 T cells at 0.01 µM of 9550 MFI and a pSTAT3 (MFI) in CD4 T cells at 0.1 µM of 11300 MFI. This molecule registered a pSTAT3 (MFI) in CD4 T cells at 1 µM of 12700 MFI, a pSTAT3 (MFI) in CD4 T cells at 10 µM of 13200 MFI, a pSTAT3 (MFI) in CD4 T cells at 100 µM of 11600 MFI and a pSTAT3 (MFI) in CD8 T cells at 0.0001 µM of 7060 MFI. This molecule also showed a pSTAT3 (MFI) in CD8 T cells at 0.001 µM of 7520 MFI, a pSTAT3 (MFI) in CD8 T cells at 0.01 µM of 6330 MFI, a pSTAT3 (MFI) in CD8 T cells at 0.1 µM of 7070 MFI and a pSTAT3 (MFI) in CD8 T cells at 1 µM of 7870 MFI. The molecule further showed a pSTAT3 (MFI) in CD8 T cells at 10 µM of 8430 MFI, a pSTAT3 (MFI) in CD8 T cells at 100 µM of 7970 MFI, a pSTAT3 (MFI) in monocytes at 0.0001 µM of 4670 MFI and a pSTAT3 (MFI) in monocytes at 0.001 µM of 4820 MFI. This molecule also showed a pSTAT3 (MFI) in monocytes at 0.01 µM of 4360 MFI, a pSTAT3 (MFI) in monocytes at 0.1 µM of 4420 MFI, a pSTAT3 (MFI) in monocytes at 1 µM of 4760 MFI and a pSTAT3 (MFI) in monocytes at 10 µM of 4880 MFI. Moreover, the pSTAT3 (MFI) in monocytes at 100 µM was determined as 4620 MFI.

B2: hIL10Ra_VHH14-hIL2Rg_VHH19, linker …, tag his (bispecific antibody, not shown: small tags and cut ends)
chain: QVQLQESGGGSVQAGGSLRLSCGASGYTYSSYCMGWFRQVPGKEREGVAVIDSDGSTSYADSVKGRFTISKDNGKNTLYLQMNSLKPEDTAMYYCAADLGHYRPPCGVLYLGMDYWGKGTQVTVSSGGSGGSGGSGQVQLQESGGGSVQAGGSLRLSCTASGFTFDDREMNWYRQAPGNECELVSTISSDGSTYYADSVKGRFTISQDNAKNTVYLQMDSVKPEDTAVYYCAADFMIAIQAPGAGCWGQGTQVTVSS
With B2, the pSTAT3 (MFI) in CD4 T cells at 0.0001 µM is 12800 MFI, the pSTAT3 (MFI) in CD4 T cells at 0.001 µM worked out at 11800 MFI, the pSTAT3 (MFI) in CD4 T cells at 0.01 µM came out at 11100 MFI and the pSTAT3 (MFI) in CD4 T cells at 0.1 µM stood at 10200 MFI. The molecule also registered a pSTAT3 (MFI) in CD4 T cells at 1 µM of 9970 MFI, a pSTAT3 (MFI) in CD4 T cells at 10 µM of 11400 MFI, a pSTAT3 (MFI) in CD4 T cells at 100 µM of 10300 MFI and a pSTAT3 (MFI) in CD8 T cells at 0.0001 µM of 7840 MFI. The molecule also displayed a pSTAT3 (MFI) in CD8 T cells at 0.001 µM of 7520 MFI, a pSTAT3 (MFI) in CD8 T cells at 0.01 µM of 6920 MFI, a pSTAT3 (MFI) in CD8 T cells at 0.1 µM of 6780 MFI and a pSTAT3 (MFI) in CD8 T cells at 1 µM of 6480 MFI. The pSTAT3 (MFI) in CD8 T cells at 10 µM was 7330 MFI, the pSTAT3 (MFI) in CD8 T cells at 100 µM was 6930 MFI, the pSTAT3 (MFI) in monocytes at 0.0001 µM stood at 4230 MFI and the pSTAT3 (MFI) in monocytes at 0.001 µM was 4710 MFI. The pSTAT3 (MFI) in monocytes at 0.01 µM turned out to be 4700 MFI, the pSTAT3 (MFI) in monocytes at 0.1 µM stood at 4690 MFI, the pSTAT3 (MFI) in monocytes at 1 µM was found to be 4620 MFI and the pSTAT3 (MFI) in monocytes at 10 µM was found to be 4550 MFI. Besides, the pSTAT3 (MFI) in monocytes at 100 µM is 4860 MFI.
